Laboratory results taken from the supplement of paper PMC12764529.
± gives the half width of the 95% confidence interval.

What was measured:
[1] = folding stability dG unfold from trypsin proteolysis; higher = more stable
Method in brief: (§1)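 Unfolding free energy was derived, per protease or combined, against a sequence-predicted unfolded-state K50 and a shared folded-state K50, starting from K50 inferred by Bayesian fitting of sequencing counts. Digestion with trypsin and chymotrypsin was carried out on designed mini-proteins under 80 residues without cysteine in a PA-tagged cDNA display construct. Only designs with AlphaFold2 dimer inter-PAE above 15 were kept.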

[2] = folding stability dG unfold from chymotrypsin proteolysis; higher = more stable
Method in brief: as §1

[3] = folding stability dG unfold (combined trypsin and chymotrypsin); higher = more stable
Method in brief: as §1

SMIKVGFNVTGLPEEAEAKAEELARELAEETGARVAGVELLEAVPHPDGGPETFNVLVTLEVPNPEAIEKSA [r9_302_TrMRF]
folding stability dG unfold [1]: 0.542 ± 0.045 kcal/mol
folding stability dG unfold [2]: 2.21 ± 0.051 kcal/mol
folding stability dG unfold [3]: 1.72 ± 0.093 kcal/mol

SMILDVPGEQLDEALAEIRAAVAAGAPPVTIRMKLSPEDLKKAKAAFEALGMTVTPLPEPGVWEFTVELRSA [r9_600_JUSTAS]
folding stability dG unfold [1]: 3.08 ± 0.043 kcal/mol
folding stability dG unfold [2]: 3.366 ± 0.017 kcal/mol
folding stability dG unfold [3]: 3.27 ± 0.065 kcal/mol

SMITIPYNIQTDPSQAEKLAEEIAKEVEEKYGLKVVGVELVEWVPAPDGSESSVKVEIKIEAPDPKNILLSA [r9_302_JUSTAS]
folding stability dG unfold [1]: 0.614 ± 0.031 kcal/mol
folding stability dG unfold [2]: 0.713 ± 0.089 kcal/mol
folding stability dG unfold [3]: 0.705 ± 0.096 kcal/mol

SMITSTTTTDPNSNTTTTTYTYPDTTYTVTRTLNPDNTVTVTVTATTPPGPTTPLSTVNLSPTDTLTLPVSA [r9_1172_JUSTAS]
folding stability dG unfold [1]: 1.34 ± 0.031 kcal/mol
folding stability dG unfold [2]: 1.26 ± 0.068 kcal/mol
folding stability dG unfold [3]: 1.36 ± 0.054 kcal/mol

SMIVRVEGDKTTITLTLTTTTTLTDPTNPSLTTTVSKTVPRTLTLDPNDPAALAALIAALPPGAVPTIVGSA [r9_476_JUSTAS]
folding stability dG unfold [1]: 0.728 ± 0.04 kcal/mol
folding stability dG unfold [2]: 1.75 ± 0.091 kcal/mol
folding stability dG unfold [3]: 1.43 ± 0.095 kcal/mol

SMKEPPKVTIEIEYDEETETVRVRITLEDGTEIEVEVEAENKEEALREAIREALKKIFPELTDEQIEKLLSA [r9_634_TrROS_Hall]
folding stability dG unfold [1]: 3.45 ± 0.24 kcal/mol
folding stability dG unfold [2]: 1.58 ± 0.11 kcal/mol
folding stability dG unfold [3]: 2.72 ± 0.29 kcal/mol

SMKIEIIERNEDGEYVLVRITFEDGEEITIVAKTEEEAKEAAKEIAKELFPDVKIKKIEVVPLEDLPEELSA [r9_137_TrROS_Hall]
folding stability dG unfold [1]: 1.62 ± 0.14 kcal/mol
folding stability dG unfold [2]: 0.251 ± 0.37 kcal/mol
folding stability dG unfold [3]: 1 ± 0.31 kcal/mol

SMKIEVEKLEDGTYVITIEDPGEDDIPVTYKAVVFVDPETGKVYVDRNIEDPNVPPELKELFENFIPGIESA [r9_715_TrMRF]
folding stability dG unfold [1]: 2.5 ± 0.094 kcal/mol
folding stability dG unfold [2]: 3.097 ± 0.018 kcal/mol
folding stability dG unfold [3]: 2.92 ± 0.056 kcal/mol

SMKIKIEKVEDGYYKIKIYDKKTKKEYTIIVPKNMKPGQVELVNRNGKKITMTLEEIKKLLPPGAEVEIVSA [r9_250_TrROS_Hall]
folding stability dG unfold [1]: 2.01 ± 0.074 kcal/mol
folding stability dG unfold [2]: 2.14 ± 0.051 kcal/mol
folding stability dG unfold [3]: 2.21 ± 0.1 kcal/mol

SMKIKIEPLPDGSYRLVAEVPEDAEETENLFPLTGKPIVVKREKNKLVIEFDNPEEVELFAEALKKNIPLSA [r9_515_TrMRF]
folding stability dG unfold [1]: 1.28 ± 0.032 kcal/mol
folding stability dG unfold [2]: 1.54 ± 0.084 kcal/mol
folding stability dG unfold [3]: 1.47 ± 0.12 kcal/mol

SMKILNDPNIKKVIPVFLMLMSPEEFKKLAEKLANGIKKELEEKGFPIPKDIEIKIIPFKSPEELKKALKSA [r9_204_TrMRF]
folding stability dG unfold [1]: 1.29 ± 0.039 kcal/mol
folding stability dG unfold [2]: 2.31 ± 0.11 kcal/mol
folding stability dG unfold [3]: 1.93 ± 0.14 kcal/mol

SMKINVVINITLPDGTTVTSTLNLTESEIEKTIKEKIPSSYKVEITKKDPVDPAKLPPGSSINVDLTVNLSA [r9_803_JUSTAS]
folding stability dG unfold [1]: 1.31 ± 0.079 kcal/mol
folding stability dG unfold [2]: 1.69 ± 0.15 kcal/mol
folding stability dG unfold [3]: 1.59 ± 0.22 kcal/mol

SMKISSFTLAPGGEAVIELTFESGETRRVRLTGLTSKAEVEAEAKRLQEELEKGNPRPIKTVTVSPAPPASA [r9_1135_JUSTAS]
folding stability dG unfold [1]: 1.14 ± 0.064 kcal/mol
folding stability dG unfold [2]: 0.768 ± 0.24 kcal/mol
folding stability dG unfold [3]: 1 ± 0.094 kcal/mol

SMKITIVNKNGEKKEIEVTAKDGKKYKITVFKDKELVIKVEETTPDGKKKPVKVIKAKSLEEALEALKKASA [r9_942_TrROS_Hall]
folding stability dG unfold [1]: 2.17 ± 0.14 kcal/mol
folding stability dG unfold [2]: 2.83 ± 0.057 kcal/mol
folding stability dG unfold [3]: 2.38 ± 0.32 kcal/mol

SMKIVKIEIEKIEIYSDEEFAKKTGIKPEAIYKNGKKKKVIKIPVKITLYDEKKGEKKEFEAEITIVIDVSA [r9_382_TrMRF]
folding stability dG unfold [1]: 1.56 ± 0.15 kcal/mol
folding stability dG unfold [2]: 2.61 ± 0.19 kcal/mol
folding stability dG unfold [3]: 2.2 ± 0.38 kcal/mol

SMKLKLYDPATGKWYELTYDPAKGTVTITYPDGKVITRPVKSIEVNPETGTITITFPDSTETFTVPESLISA [r9_325_JUSTAS]
folding stability dG unfold [1]: 3.42 ± 0.089 kcal/mol
folding stability dG unfold [2]: 3.934 ± 0.031 kcal/mol
folding stability dG unfold [3]: 3.79 ± 0.066 kcal/mol

SMKLKPGQTAKIVEIKENYIYIEVNGKKYKISLEELKEKGYEIKIVNGKIVEIRPKPKKKLSEEELKKLKSA [r9_842_TrROS_Hall]
folding stability dG unfold [1]: 1.13 ± 0.077 kcal/mol
folding stability dG unfold [2]: 1.04 ± 0.16 kcal/mol
folding stability dG unfold [3]: 1.16 ± 0.15 kcal/mol

SMKPGDKLLIRIRLPPVKVEREYFDKDGKLVKKETKEVKEVELVIELSPEELEKLRELLKELGFEVEILPSA [r9_167_TrROS_Hall]
folding stability dG unfold [1]: 2.83 ± 0.16 kcal/mol
folding stability dG unfold [2]: 2.4 ± 0.055 kcal/mol
folding stability dG unfold [3]: 2.5 ± 0.16 kcal/mol

SMKPGDVKVIEIEVEYPWPPGDPEKAKEKVRDLVNSIMQEHGYDVDIPVEIEPRDGRYRVEVPIIIRPPNSA [r9_889_TrROS]
folding stability dG unfold [1]: 0.0547 ± 0.069 kcal/mol
folding stability dG unfold [2]: -0.771 ± 0.36 kcal/mol
folding stability dG unfold [3]: -0.409 ± 0.25 kcal/mol

SMKPGETVTLEVVIRVKKENMTLEEIAEEVANAIKALLPPGAKITIEVVDIEYDEETDEVYVKLKITIENSA [r9_706_TrROS_Hall]
folding stability dG unfold [1]: 4.17 ± 0.28 kcal/mol
folding stability dG unfold [2]: 2.64 ± 0.23 kcal/mol
folding stability dG unfold [3]: 3.01 ± 0.32 kcal/mol

SMKPPVKVRIRIYNPETGEEIATIEIEFLPDGTVKVTIEIDGKKYEIEMSLDELLEALKKLPFKIVEIEPSA [r9_470_TrROS_Hall]
folding stability dG unfold [1]: 3.72 ± 0.12 kcal/mol
folding stability dG unfold [2]: 3.35 ± 0.064 kcal/mol
folding stability dG unfold [3]: 3.57 ± 0.1 kcal/mol
